From PMC2757917, “Mutations in the DNA-Binding Domain of NR2E3 Affect In Vivo Dimerization and Interaction with CRX” (PLoS ONE, 2009)

Biological target: the molecule itself
Test: native gel or EMSA; total protein extracts of transfected HEK293T cells on an 8% PAA-gel under non-denaturing conditions, Western blot with an anti-NR2E3 antibody

B1: human NR2E3 wild-type protein (pcDNA3.1/HisC-hNR2E3) (natural protein)
chain: not shown
notes: NR2E3 (PNR), photoreceptor-specific nuclear receptor, human, SwissProt Q9Y5X4; band of 45 kDa on the denaturing gel; also called PNR; pcDNA-NR2E3-His/C; source: HEK293T, transiently transfected, in lysate
  stoichiometry N: 2
